The target of the data set is NagRBt (formerly YvoABt) (Bacillus thuringiensis strain Bti75, UniProt A0A1T3UL85 1-243). As to the kind of experiment: EMSA; EMSA: 10 mM Tris-HCl pH 8.0, 1 mM MgCl2, 50 mM NaCl, 0.5 mM DTT, 0.5 mM EDTA, 5% glycerol, 30 C, 30 min; 0.2 uM probe; competition with 3.0 uM NagRBt, 400-fold. The conditions noted are these: protein: recombinant; tags: C-terminal His (pET-28a(+)); chain copies: 2; unlabeled (EB stain); blunt. For orientation: Mobility shift assays separate free from complexed probe on a gel.

B1: crr (ptsA) dre probe (H) (dsDNA)
DNA 1: TTTTTTTGCCCAACTTGTCTAGAGGTCTTTACTACATTTT
DNA 2: AAAATGTAGTAAAGACCTCTAGACAAGTTGGGCAAAAAAA
As for B1, the binding result is given as “binds”.

B2: chiA dre probe (D) (dsDNA)
DNA 1: AACCAATCATCTAGACAACTATATAACACGAACGTTTTAC
DNA 2: GTAAAACGTTCGTGTTATATAGTTGTCTAGATGATTGGTT
On to B2, for which the binding result was “binds”.

The values above are taken from article PMC6141813, “NagRBt Is a Pleiotropic and Dual Transcriptional Regulator in Bacillus thuringiensis”.
